Reference: paper PMC11134719

Experiments:
[1] = target: Toll-like receptor 4 (TLR4) (human (endogenous in HUVECs and HMEC-1)) (UniProt O00206)
[2] = target: angiotensin-converting enzyme 2 (ACE2) (human (endogenous in HUVECs and HMEC-1)) (UniProt Q9BYF1)
Chain of UniProt Q9BYF1 (Q9BYF1 18-805): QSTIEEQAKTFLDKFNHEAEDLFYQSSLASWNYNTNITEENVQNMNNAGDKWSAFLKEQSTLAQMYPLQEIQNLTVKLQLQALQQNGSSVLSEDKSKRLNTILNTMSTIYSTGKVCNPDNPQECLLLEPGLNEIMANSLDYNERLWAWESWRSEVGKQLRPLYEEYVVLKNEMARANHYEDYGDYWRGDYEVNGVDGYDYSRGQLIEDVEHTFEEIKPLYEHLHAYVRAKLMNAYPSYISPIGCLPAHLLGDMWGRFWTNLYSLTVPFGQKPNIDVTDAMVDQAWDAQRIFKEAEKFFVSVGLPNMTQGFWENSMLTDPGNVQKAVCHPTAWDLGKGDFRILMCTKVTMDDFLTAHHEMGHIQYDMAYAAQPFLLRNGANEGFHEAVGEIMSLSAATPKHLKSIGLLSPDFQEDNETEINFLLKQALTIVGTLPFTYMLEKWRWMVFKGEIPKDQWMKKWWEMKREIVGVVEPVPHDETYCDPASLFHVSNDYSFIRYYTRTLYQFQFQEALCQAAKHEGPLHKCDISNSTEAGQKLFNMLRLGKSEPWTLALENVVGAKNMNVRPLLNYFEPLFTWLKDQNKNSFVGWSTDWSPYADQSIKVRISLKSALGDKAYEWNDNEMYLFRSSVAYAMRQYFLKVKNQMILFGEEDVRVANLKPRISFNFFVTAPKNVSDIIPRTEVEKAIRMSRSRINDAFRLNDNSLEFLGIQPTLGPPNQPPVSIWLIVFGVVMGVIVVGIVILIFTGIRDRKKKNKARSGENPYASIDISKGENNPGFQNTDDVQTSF

Chain of UniProt O00206 (O00206 24-839): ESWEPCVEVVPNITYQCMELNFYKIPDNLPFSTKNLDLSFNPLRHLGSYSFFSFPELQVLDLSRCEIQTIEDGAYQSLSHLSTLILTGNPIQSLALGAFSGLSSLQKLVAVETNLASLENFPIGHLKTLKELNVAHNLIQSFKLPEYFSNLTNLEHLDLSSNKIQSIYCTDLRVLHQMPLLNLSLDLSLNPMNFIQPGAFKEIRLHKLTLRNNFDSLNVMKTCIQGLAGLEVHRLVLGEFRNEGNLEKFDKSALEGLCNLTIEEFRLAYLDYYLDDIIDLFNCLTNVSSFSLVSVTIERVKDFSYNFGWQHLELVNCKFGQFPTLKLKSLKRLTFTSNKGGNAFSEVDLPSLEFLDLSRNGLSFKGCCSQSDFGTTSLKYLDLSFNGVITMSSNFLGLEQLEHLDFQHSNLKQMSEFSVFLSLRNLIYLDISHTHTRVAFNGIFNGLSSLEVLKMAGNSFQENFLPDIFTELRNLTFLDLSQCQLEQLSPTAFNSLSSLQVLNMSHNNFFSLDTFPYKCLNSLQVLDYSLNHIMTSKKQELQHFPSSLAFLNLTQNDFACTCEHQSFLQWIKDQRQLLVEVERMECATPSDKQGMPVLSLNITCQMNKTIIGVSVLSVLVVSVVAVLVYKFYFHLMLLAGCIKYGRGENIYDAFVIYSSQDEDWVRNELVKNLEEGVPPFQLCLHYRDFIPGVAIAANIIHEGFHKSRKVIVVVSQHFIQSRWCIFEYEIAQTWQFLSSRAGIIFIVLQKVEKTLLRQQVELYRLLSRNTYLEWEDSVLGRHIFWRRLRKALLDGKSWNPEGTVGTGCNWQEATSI

For “2019-nCoV S1 Protein (SARS-CoV-2 Spike protein) (domain or fragment)”, the TLR4 surface protein level by Western blot, fold over nontreated endothelial cells, 0.5 µg/mL S protein for 48 h [1] was 1.7 fold, the TLR4 surface protein level by immunostaining, fold over nontreated endothelial cells, 0.5 µg/mL S protein for 48 h [1] was 1.4 fold and the decrease of the ACE2 surface protein level (Western blot of the cell surface fraction), 0.5 µg/mL S protein for 48 h [2] was 60%.
